# Results reported in publication PMC11006747, “The E3 ubiquitin ligase ITCH negatively regulates intercellular communication via gap junctions by targeting connexin43 for lysosomal degradation” (Cellular and Molecular Life Sciences: CMLS, 2024).
# B1: HA-ITCH-wild type (enzyme)
# chain: not shown
# notes: E3 ubiquitin ligase ITCH, wild type, gene synthesised (GeneArt, Thermo Fisher); Isoform inferred only from the printed number of the catalytic cysteine (C830A mutant of the same cDNA); also called HA-ITCH-WT; source: HeLa cells negative for Cx43, transfected (pcDNA3.4-TOPO), in lysate
# Target: T1, Cx43-WT (human connexin43, transiently expressed) (human, UniProt P17302 1-382)
# T1 construct: human connexin43 (Cx43; gene GJA1) from the expression plasmid pcDNA I/Neo; source: HeLa cells negative for Cx43, transfected (pcDNA I/Neo), in lysate
# T1 sequence (P17302 whole entry): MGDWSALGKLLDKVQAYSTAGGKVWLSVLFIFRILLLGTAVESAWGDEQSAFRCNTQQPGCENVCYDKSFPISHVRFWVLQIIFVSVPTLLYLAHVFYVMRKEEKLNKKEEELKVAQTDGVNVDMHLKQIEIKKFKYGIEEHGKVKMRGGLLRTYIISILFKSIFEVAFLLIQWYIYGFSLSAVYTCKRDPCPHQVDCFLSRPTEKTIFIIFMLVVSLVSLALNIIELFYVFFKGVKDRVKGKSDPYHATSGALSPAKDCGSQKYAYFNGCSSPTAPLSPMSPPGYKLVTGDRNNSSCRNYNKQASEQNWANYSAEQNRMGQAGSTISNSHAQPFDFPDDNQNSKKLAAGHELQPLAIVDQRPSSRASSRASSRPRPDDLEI
# Assay: co-IP; lysates of HeLa cells negative for Cx43, co-transfected 48 h with Cx43-WT or Cx43-P283A and HA-ITCH-WT, immunoprecipitated with anti-Cx43 antibodies cross-linked to protein A-Sepharose, 2 h at 4 °C; HA-ITCH detected by western blot with anti-HA and normalised to Cx43 in the immunoprecipitate; in one experiment cells treated with DMSO or bafilomycin A1 (200 nM) for the last 18 h; rabbit IgG as control
# Details: partners not purified
binder,measurement,value
B1,fold increase of co-immunoprecipitated HA-ITCH with bafilomycin A1 against DMSO,~4 fold
